# T1: E. coli-expressed recombinant cynomolgus IL-13 (cynomolgus, UniProt Q5I6E4 21-132 (Macaca thibetana entry))
# T1 chain: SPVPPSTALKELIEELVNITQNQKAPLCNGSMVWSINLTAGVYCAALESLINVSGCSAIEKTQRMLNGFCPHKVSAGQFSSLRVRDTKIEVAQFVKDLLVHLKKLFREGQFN
# T2: 16 mer peptide 30 (N-terminal biotin; C-terminal amide)
# T2 peptide: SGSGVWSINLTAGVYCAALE
# T3: 16 mer peptide 44 (cynomolgus, N-terminal biotin; C-terminal free acid)
# T3 construct: also called 44 (Control)
# T3 peptide: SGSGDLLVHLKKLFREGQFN
# B1: monoclonal antibody 6A1 (antibody, IgG1, V domains shown)
# VH: EIQLQQSVAELVRPGASVRLSCTASGFYIKDTYMHWVIQRPEQGLEWIGTIDPANGNTKYVPKFQGKATITADTSSNTAYLRLSSLTSEDTAIYYCARSIYDDYHYDDYYAMDYWGQGTSVTVSS
# VL: DVLMTQTPLSLPVSLGDQASISCRSSQNIVHINGNTYLEWYLQKPGQSPKLLIYKISDRFSGVPDRFSGSGSGTDFTLKISRVEAEDLGVYYCFQGSHVPWTFGGGTKLEIK
# notes: also called 6A1 parental mAb; parental mouse mAb 6A1
# B2: L1+A1 (antibody, human IgG1, kappa, V domains shown)
# VH: QVQLVQSGAEVKKPGSSVKVSCKASGFYIKDTYMHWVRQAPGQGLEWMGTIDPANGNTKYVPKFQGRVTITADESTSTAYMELSSLRSEDTAVYYCARSIYDDYHYDDYYAMDYWGQGTLVTVSS
# VL: DIVMTQSPLSLPVTPGEPASISCRSSQNIVHINGNTYLEWYLQKPGQSPRLLIYKISDRFSGVPDRFSGSGSGTDFTLKISRVEADDVGIYYCFQGSHVPWTFGQGTKLEIKR
# notes: Humanised 6A1, VH construct A1 and VL construct L1, human gamma1 wild type / kappa constant regions; also called A1L1; humanised anti-IL-13 mAb L1+A1
# Columns and labels:
# [1] = molecular target: T4, E. coli-expressed recombinant human IL-13 (human, UniProt P35225 35-146); assay: cell-based or functional assay
# [2] = molecular target: T1, E. coli-expressed recombinant …; assay: cell-based or functional assay
# [3] = molecular target: E. coli-expressed recombinant Q130 human IL-13 (human, UniProt P35225 35-146, limits assumed); assay: cell-based or functional assay
# [4] = molecular target: mammalian-expressed (CHO cell) human IL-13 (human, UniProt P35225 35-146, limits assumed); assay: cell-based or functional assay
# [5] = molecular target: T2, 16 mer peptide 30; assay: 16 mer peptide ELISA
# From the text: (§1) Biotinylated 16 mer peptides offset by 4 were synthesised to map the location of the B cell epitope recognised by mAb 6A1 on both human and cynomolgus IL-13. An ELISA method was used to detect binding of immobilised biotinylated peptide to the parental mAb 6A1.
# [6] = molecular target: T3, 16 mer peptide 44; assay: 16 mer peptide ELISA
# From the text: as §1
# [7] = molecular target: T5, E. coli-expressed recombinant det-1 tagged human IL-13 (human, UniProt P35225 35-146); assay: competition ELISA: inhibition of det-1 tagged human IL-13 binding to human IL-13Rα1-Fc
# T5 construct: also called Det-1 tagged human IL-13 (made in-house); not shown: det-1 tag
# [8] = molecular target: T5, E. coli-expressed recombinant det-1 …; assay: competition ELISA: inhibition of det-1 tagged human IL-13 binding to human IL-13Rα2-Fc
# [9] = molecular target: T4, E. coli-expressed recombinant human …; assay: BIAcore analysis 2
# [10] = molecular target: T4, E. coli-expressed recombinant human …; assay: BIAcore, summary of the analyses
# T4 sequence (P35225 other isoform, or with tags, fused parts or gaps): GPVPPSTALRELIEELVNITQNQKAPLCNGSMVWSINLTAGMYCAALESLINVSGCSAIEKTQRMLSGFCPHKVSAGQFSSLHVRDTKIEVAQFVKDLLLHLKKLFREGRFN
# T5 sequence (P35225 other isoform, or with tags, fused parts or gaps): as above
# Sequence of E. coli-expressed recombinant Q130 human IL-13 (P35225 35-146 limits assumed): as the sequence (P35225 other isoform, or with tags, fused parts or gaps) above, with R110Q counted along it
# Sequence of mammalian-expressed (CHO cell) human IL-13 (P35225 other isoform, or with tags, fused parts or gaps limits assumed): as the sequence (P35225 other isoform, or with tags, fused parts or gaps) above
Binder,"ND50, TF-1 cell proliferation bioassay [1]","ND50, TF-1 cell proliferation bioassay [2]","ND50, TF-1 cell proliferation bioassay [3]","ND50, TF-1 cell proliferation bioassay [4]",absorbance at 490 nm [5],absorbance at 490 nm [6],IC50 [7],IC50 [8],Kd [9],koff [9],kon [9],Kd [10],koff [10],kon [10]
B1,0.0783 µg/mL,0.04 µg/mL,0.11 µg/mL,0.037 µg/mL,0.062 A490,2.23 A490,0.165 mg/L,0.056 mg/L,,,,,,
B2,,,,,,,,,0.149 nM,6.95e-05 s⁻¹,466000 M⁻¹ s⁻¹,~0.168 nM,8.22e-05 s⁻¹,~600000 M⁻¹ s⁻¹
